The values that follow come from publication PMC7900517, “PIP2 promotes conformation-specific dimerization of the EphA2 membrane region” (The Journal of Biological Chemistry, 2020).

Ends that are not written are not given here. Alexa Fluor 488 = fluorescent dye attached through a C5 maleimide linker to the added cysteine

Data set [1] deals with the molecule itself. In words: single-molecule photobleaching (TIRF) in SMALPs; Alexa Fluor 488-TMJM in 22:1 PC or 14:1 PC SMALPs with 3% biotin-PE, ± 3% PIP2 or 10% POPS, ± 1 mM Ca2+; lipid-to-peptide ratio 300:1; SMALPs (20 to 30 nM peptide) immobilised on PEGylated slides via biotin-streptavidin; SMALP buffer 19.3 mM HEPES, 150 mM NaCl, 1 mM EGTA; photobleaching steps counted for each SMALP.

Data set [2] concerns the molecule itself. Kind of data set: cross-linking; disulfide cross-linking through the C-terminal Cys; unlabeled TMJM in 14:1 PC or 22:1 PC liposomes ± 3% PIP2, lipid-to-peptide ratio 300:1; 19.3 mM HEPES, 1 mM EGTA, shaken 3 h at room temperature (19-21 °C); non-reducing SDS-PAGE (16% tricine gel), silver stain.

B1: TMJM peptide labeled with Alexa Fluor 488 (peptide)
peptide: GSGNLAVIGGVAVGVVLLLVLAGVGFFIHRRRKC(Alexa Fluor 488)WN
modifications: also: Alexa Fluor 488 (C5 maleimide) on the added C-terminal cysteine
notes: EphA2 residues 531 to 563: a short stretch of extracellular residues, the TMD and the first five JM residues (HRRRK); added residues at the C terminus: a cysteine for dye conjugation and a tryptophan as fluorescent reporter; Reconstituted in 14:1 PC or 22:1 PC bilayers with 3% biotin-PE and solubilised as SMALPs; also called Alexa Fluor 488 labeled TMJM peptide; source: synthetic peptide (F-moc …)
Take B1: in data set [1], the “stoichiometry N” value was found to be 2.

B2: TMJM peptide (unlabeled) (peptide)
peptide: GSGNLAVIGGVAVGVVLLLVLAGVGFFIHRRRKCWN
notes: EphA2 residues 531 to 563: a short stretch of extracellular residues, the TMD and the first five JM residues (HRRRK); added residues at the C terminus; the free cysteine forms the disulfide in the cross-linking experiment; Free Cys at the JM end; also called unlabeled TMJM; source: synthetic peptide (F-moc chemistry, Thermo Fisher)
In the case of B2, the binding result in data set [2] is “binds”.

As usually defined, the stoichiometry N is a count of units in the complex or per binding partner.
